In patent US11994512B2, “Single-cell genomic methods to generate ex vivo cell systems that recapitulate in vivo biology with improved fidelity” (Massachusetts Institute of Technology, priority 2018, dated 2024):

B1: Q8CGK7 (protein, UniProt Q8CGK7 1-381, looked up)
chain: MGCLGNSSKTAEDQGVDEKERREANKKIEKQLQKERLAYKATHRLLLLGAGESGKSTIVKQMRILHVNGFNPEEKKQKILDIRKNVKDAIVTIVSAMSTIIPPVPLANPENQFRSDYIKSIAPITDFEYSQEFFDHVKKLWDDEGVKACFERSNEYQLIDCAQYFLERIDSVSLVDYTPTDQDLLRCRVLTSGIFETRFQVDKVNFHMFDVGGQRDERRKWIQCFNDVTAIIYVAACSSYNMVIREDNNTNRLRESLDLFESIWNNRWLRTISIILFLNKQDMLAEKVLAGKSKIEDYFPEYANYTVPEDATPDAGEDPKVTRAKFFIRDLFLRISTATGDGKHYCYPHFTCAVDTENIRRVFNDCRDIIQRMHLKQYELL
modifications: full-length
B2: Q8CIV3 (protein, UniProt Q8CIV3 1-451, looked up)
chain: MLRLCFFISFMCLVKSDTDETCPSFTRLSFHSAVVGTGLSVRLMLYTQRDQTCAQIINSTALGSLNVTKKTTFIIHGFRPTGSPPVWIEELVQSLISVQEMNVVVVDWNRGATTVIYPHASSKTRQVASILKEFIDQMLVKGASLDNIYMIGVSLGAHIAGFVGESYEGKLGRVTGLDPAGPLFNGRPPEERLDPSDALFVDVIHSDTDALGYKEALGHIDFYPNGGLDQPGCPKTIFGGIKYFKCDHQMSVYLYLASLQNNCSITAYPCDSYRDYRNGKCVSCGAGQIVPCPRVGYYADSWKEYLWDRDPPMTKAFFDTAETKPYCMYHYFVDIVSWNKSVRRGFITIKLRGEDGNITESKIDHEPSAFEKYHQVSLLARFNRDLDKVAEISLLFSTGSVVGPKYKLRVLQMKLRSLAHPDRPHLCRYDLVLMENVETSFQPILCSQQQM
modifications: full-length
B3: Q8CAB8 (protein, UniProt Q8CAB8 1-329, looked up)
chain: MELHILEHRLQVASVAKESIPLFTYGLIKLAFLSSKTRCKFFSLTETPEDYTIIVDEEGFLELPSSEHLSVADATWLALNVVSGGGSFSSSQPIGVTKIAKSVIAPLADQNISVFMLSTYQTDFILVRERDLPFVTHTLSSEFTILRVVNGETVAAENLSFTNGFVKPKMVQRPVIHPLSSPSNRFCVTSLDPDTLPAVATLLMDVMFYSNGVKDPMAASDDCGHIRFFSFSLIEGYISLVMDVQTQQRFPSHLLFTSASGELWKMVRIGGQPLGFDECGIVAQISEPLAAADIPAYYISTFKFDHALVPEENISGVIHALKVSQAGKH
modifications: full-length
B4: Q8K354 (protein, UniProt Q8K354 1-277, looked up)
chain: MSSCSRVALVTGANKGIGFAITRDLCRKFSGDVVLTARDEARGRAAVQQLQAEGLSPRFHQLDIDDPQSIRALRDFLRKEYGGLNVLVNNAGIAFRMDDPTPFDIQAEVTLKTNFFATRNVCTELLPIMKPHGRVVNISSLQGLKALENCREDLQEKFRCDTLTEVDLVDLMKKFVEDTKNEVHEREGWPDSAYGVSKLGVTVLTRILARQLDEKRKADRILLNACCPGWVKTDMARDQGSRTVEEGAETPVYLALLPPDATEPHGQLVRDKVVQTW
modifications: full-length
B5: Q8C5N3 (protein, UniProt Q8C5N3 1-908, looked up)
chain: MKSSVAHMKSSGHNRRETHSSYRRSSSPEDRYTEQERSPRDRGYSDYSRSDYERSRRGYSYDDSMESRSRDREKRRERERDADHRKRSRKSPSPDRSPARGGGQSSPQEEPTWKKKKDELDPLLTRTGGAYIPPAKLRMMQEQITDKSSLAYQRMSWEALKKSINGLINKVNISNISIIIQELLQENIVRGRGLLSRSVLQAQSASPIFTHVYAALVAIINSKFPQIGELILKRLILNFRKGYRRNDKQLCLTASKFVAHLINQNVAHEVLCLEMLTLLLERPTDDSVEVAIGFLKECGLKLTQVSPRGINAIFERLRNILHESEIDKRVQYMIEVMFAVRKDGFKDHPVILEGLDLVEEDDQFTHMLPLEDDYNPEDVLNVFKMDPNFMENEEKYKAIKKEILDEGDSDSNTDQGAGSSEDEEEEDEEEEGEDEEGGQKVTIHDKTEINLVSFRRTIYLAIQSSLDFEECAHKLLKMEFAESQTKELCNMILDCCAQQRTYEKFFGLLAGRFCMLKKEYMESFESIFKEQYDTIHRLETNKLRNVAKMFAHLLYTDSLPWSVLECIKLSEETTTSSSRIFVKIFFQELCEYMGLPKLNARLKDETLQPFFEGLLPRDNPRNTRFAINFFTSIGLGGLTDELREHLKNTPKVIVAQKPEAEQKKPALTSSSSESSSASDSSDSESDSSESSSESSSDASDSSSSSSTQSSTSGITAHSAKGTRKKRQGKARGEEVDKLARGHQALERRREGGREDQRHQEGRTERARSERRRAQNSRDADWRDPLAKHIDDRSHENSHSRVGNGREQGSHREPEDRHGEPKKRRERRDSFSENEKQRSRNQDSDNVRRKDRSKSRERSRRHSGHKGDDARCQNSAERRWEKPGRRPEQSRESKRSQDRRREKSPTTQK
modifications: full-length
B6: Q8K023 (protein, UniProt Q8K023 1-323, looked up)
chain: MNSKIQKIELNDGHSIPVLGFGTYATEEHLKKKSMESTKIAIDVGFCHIDCSHLYQNEEEIGQAILSKIEDGTVKREDIFYTSKLWSTSHRPELVRPSLENSLRKLNLDYVDLYLIHFPVSLKPGNELLPKDEHGNLIFDTVDLCDTWEAMEKCKDAGLAKSIGVSNFNRRQLEMILNKPGLKYKPVCNQVECHLYLNQSKLLAYCKMNDIVLVAYGALGTQRYKYCINEDTPVLLDDPVLCAMAKKYKRTPALIALRYQLDRGIVALAKSFNEERIRENMQVFDFQLASDDMKILDGLDRNLRYFPADMFKAHPNFPFFDEY
modifications: full-length
B7: Q8C2E4 (protein, UniProt Q8C2E4 1-695, looked up)
chain: MDLLRLSRLFSGPRPIGLSVLQHLDLVGSTRWTGGREGPARLRAAFCGSSSPLPLGSGNQKEMSSLCSDSSKLSTVAPQEEAEEESFGSLSGKFSSRRIFHKSTAQLYNLQLKEQGGEEEELEPRPWRGRRNTQYWYFFQCKRLIKEGKLAEALDLFERQMLKEERLQPLECNYTVLIGGCGRVGYLKKAFRLFNDMKKRDLEPSDATYTALFNVCAESPWKDSALQSALKLRQQLQARNFQLNLKTYHALLKVAAKCADLRLCLDVFKEIIQRGHAVTEETFCFLLVGCIQDKKTGFRQAMQVWRQMLSLGIKPSRHGYNLLLEAARDCGLGDPEVASRLLLTSQEETILLPPPKGRHMAGRKVQAKTVHGVSLRHVEALERQLFLEPSQKLEGPPALPEARVTSRTQPEVETTAEPGHTVALTPLASKPTHLELEVSLLSLGTLSPAVVSFGTVATPADRLALMGGLEGFLGKMTEHGLQPDIKTLTLLAEVVEPGSTAESSLLSVLDRHRVEADVTFFNTLIRKKSKLGDLEGAKALLPILAKKGIVPNLRTFCNLAIGCHRPRDGMQLLADMKKSQVSPNIHIYSTLINAALKKLDYTYLISILKDMRQNSVPVNEVVVRQLEFAAEYPPTFDRYKGKNTYLEKIDGFRAYYKQWLKAMPAEEAPHPWQEFQNKPVGDQDTTDKAGGLRDG
modifications: full-length
B8: Q8CFC7 (protein, UniProt Q8CFC7 1-668, looked up)
chain: MWHEARKHERKLRGMMVDYKKRAERRREYYEKIKKDPAQFLQVHGRACKVHLDSAVALAAESPVNMMPWQGDTNNMIDRFDVRAHLDHIPDYTPPLLTTISPEQESDERKCNYERYRGLVQNDFAGISEEQCLYQIYIDELYGGLQRPSEDEKKKLAEKKASIGYTYEDSTVAEVEKVAEKPEEEESPAEEESNSDEDEVIPDIDVEVDVDELNQEQVADLNKQATTYGMADGDFVRMLRKDKEEAEAIKHAKALEEEKAMYSGRRSRRQRREFREKRLRGRKISPPSYARRDSPTYDPYKRSPSESSSESRSRSRSPSPGREEKITFITSFGGSDEEAAAAAAAAAASGAAPGKPPAPPQTGGPAPGRNASTRRRSSSSSASRTSSSRSSSRSSSRSRRGYYRSGRHARSRSRSWSRSRSRSRRYSRSRSRGRRHSDGGSRDGHRYSRSPARRGGYVPRRRSRSRSRSGDRYKRGARGPRHHSSSHSRSSWSLSPSRSRSVTRSGSRSQSRSRSRSQSHSQSQSHSPSPPREKLTRPAASPAVGEKLKKTEPAAGKETGAAKPKLTPQERLKLRMQKALNRQFKADKKAAQEKMIQQEHERQEREDELRAMARKIRMKERERREKEREEWERQYSRQSRSPSPRYSREYSSSRRRSRSRSRSPHYRH
modifications: full-length

tested on: intracellular proteome of ENR+CD and ENR organoids; test: LC-MS/MS TMT proteomics of ENR+CD versus ENR organoids; type: cell-based, C57BL/6 mice; details: ENR+CD versus ENR organoids, sample pairs in aggregate (n=4, 2 technical replicates from two biological donors)

First: B1
Second: B2
The “Average logFC” value of the first is lower: −1.357 for the first, 1.179 for the second.

First: B3
Second: B4
The “Average logFC” value of the first is higher: 1.494 for the first, −1.221 for the second.

B5 and B6 are within 0.2 log units of each other in “Average logFC” value: −1.281 for the first, −1.451 for the second.

Going from B7 to B8, the “Average logFC” value rises from −1.79 to −1.139.

same assay, conditions: protein abundance ratio ENR+CD versus ENR organoids, sample pair M1-1; LC-MS/MS TMT proteomics

Going from B1 to B2, the “M1-1 Log2 Median Normalized” value rises from −1.028 to 1.6.

First: B3
Second: B4
The “M1-1 Log2 Median Normalized” value of the first is higher: 1.555 for the first, −1.154 for the second.

Compared with B5, B6 is higher in “M1-1 Log2 Median Normalized” value: −1.581 for the first, −1.063 for the second.

B7 and B8 are within 0.2 log units of each other in “M1-1 Log2 Median Normalized” value: −1.411 for the first, −1.219 for the second.

same assay, conditions: protein abundance ratio ENR+CD versus ENR organoids, sample pair M1-2; LC-MS/MS TMT proteomics

Compared with B1, B2 is higher in “M1-2 Log2 Median Normalized” value: −1.1 for the first, 0.988 for the second.

Going from B3 to B4, the “M1-2 Log2 Median Normalized” value falls from 0.678 to −1.435.

B5 and B6 are within 0.2 log units of each other in “M1-2 Log2 Median Normalized” value: −0.922 for the first, −0.99 for the second.

Compared with B7, B8 is higher in “M1-2 Log2 Median Normalized” value: −1.637 for the first, −0.633 for the second.

same assay, conditions: protein abundance ratio ENR+CD versus ENR organoids, sample pair M2-1; LC-MS/MS TMT proteomics

First: B1
Second: B2
The “M2-1 Log2 Median Normalized” value of the first is lower: −1.4805 for the first, 0.9025 for the second.

Compared with B3, B4 is lower in “M2-1 Log2 Median Normalized” value: 1.5715 for the first, −1.8555 for the second.

Compared with B5, B6 is lower in “M2-1 Log2 Median Normalized” value: −0.9735 for the first, −1.9945 for the second.

Going from B7 to B8, the “M2-1 Log2 Median Normalized” value rises from −1.8825 to −0.8625.

same assay, conditions: protein abundance ratio ENR+CD versus ENR organoids, sample pair M2-2; LC-MS/MS TMT proteomics

Compared with B1, B2 is higher in “M2-2 Log2 Median Normalized” value: −1.82 for the first, 1.225 for the second.

First: B3
Second: B4
The “M2-2 Log2 Median Normalized” value of the first is higher: 1.494 for the first, −0.441 for the second.

B5 and B6 are within 0.2 log units of each other in “M2-2 Log2 Median Normalized” value: −1.648 for the first, −1.758 for the second.

Going from B7 to B8, the “M2-2 Log2 Median Normalized” value rises from −2.231 to −1.84.

same assay, conditions: up = enriched in ENR+CD, down = enriched in ENR; FDR<0.05 and log fold change cut-off

In the case of B1, the change is reported as “down”.
For B2, the change was “up”.
With B3 the change was “up”.
B4 was tested, and the change was “down”.
For B5, the change was “down”.
B6 was tested, and the change was “down”.
For B7, the change was “down”.
B8 was tested, and the change was “down”.
